Three molecules from paper PMC4393884 (Structure (London, England : 1993), 2014) can be followed below.

B1: full length progesterone receptor isoform A (PR-A) (receptor, human, UniProt P06401-2 1-769, looked up)
chain: MSRSGCKVGDSSGTAAAHKVLPRGLSPARQLLLPASESPHWSGAPVKPSPQAAAVEVEEEDGSESEESAGPLLKGKPRALGGAAAGGGAAAVPPGAAAGGVALVPKEDSRFSAPRVALVEQDAPMAPGRSPLATTVMDFIHVPILPLNHALLAARTRQLLEDESYDGGAGAASAFAPPRSSPCASSTPVAVGDFPDCAYPPDAEPKDDAYPLYSDFQPPALKIKEEEEGAEASARSPRSYLVAGANPAAFPDFPLGPPPPLPPRATPSRPGEAAVTAAPASASVSSASSSGSTLECILYKAEGAPPQQGPFAPPPCKAPGASGCLLPRDGLPSTSASAAAAGAAPALYPALGLNGLPQLGYQAAVLKEGLPQVYPPYLNYLRPDSEASQSPQYSFESLPQKICLICGDEASGCHYGVLTCGSCKVFFKRAMEGQHNYLCAGRNDCIVDKIRRKNCPACRLRKCCQAGMVLGGRKFKKFNKVRVVRALDAVALPQPVGVPNESQALSQRFTFSPGQDIQLIPPLINLLMSIEPDVIYAGHDNTKPDTSSSLLTSLNQLGERQLLSVVKWSKSLPGFRNLHIDDQITLIQYSWMSLMVFGLGWRSYKHVSGQMLYFAPDLILNEQRMKESSFYSLCLTMWQIPQEFVKLQVSQEEFLCMKVLLLLNTIPLEGLRSQTQFEEMRSSYIRELIKAIGLRQKGVVSSSQRFYQLTKLLDNLHDLVKQLHLYCLNTFIQSRALSVEFPEMMSEVIAAQLPKILAGMVKPLLFHKK
B2: C-terminal core DNA binding domain (aa 159-339) of human TATA-binding protein (TBPc) (domain or fragment, UniProt P20226 159-339, looked up)
chain: SGIVPQLQNIVSTVNLGCKLDLKTIALRARNAEYNPKRFAAVIMRIREPRTTALIFSSGKMVCTGAKSEEQSRLAARKYARVVQKLGFPAKFLDFKIQNMVGSCDVKFPIRLEGLVLTHQQFSSYEPELFPGLIYRMIKPRIVLLIFVSGKVVLTGAKVRAEIYEAFENIYPILKGFRKTT
B3: full length progesterone receptor isoform B (PR-B) (receptor, human, UniProt P06401 1-933, looked up)
chain: MTELKAKGPRAPHVAGGPPSPEVGSPLLCRPAAGPFPGSQTSDTLPEVSAIPISLDGLLFPRPCQGQDPSDEKTQDQQSLSDVEGAYSRAEATRGAGGSSSSPPEKDSGLLDSVLDTLLAPSGPGQSQPSPPACEVTSSWCLFGPELPEDPPAAPATQRVLSPLMSRSGCKVGDSSGTAAAHKVLPRGLSPARQLLLPASESPHWSGAPVKPSPQAAAVEVEEEDGSESEESAGPLLKGKPRALGGAAAGGGAAAVPPGAAAGGVALVPKEDSRFSAPRVALVEQDAPMAPGRSPLATTVMDFIHVPILPLNHALLAARTRQLLEDESYDGGAGAASAFAPPRSSPCASSTPVAVGDFPDCAYPPDAEPKDDAYPLYSDFQPPALKIKEEEEGAEASARSPRSYLVAGANPAAFPDFPLGPPPPLPPRATPSRPGEAAVTAAPASASVSSASSSGSTLECILYKAEGAPPQQGPFAPPPCKAPGASGCLLPRDGLPSTSASAAAAGAAPALYPALGLNGLPQLGYQAAVLKEGLPQVYPPYLNYLRPDSEASQSPQYSFESLPQKICLICGDEASGCHYGVLTCGSCKVFFKRAMEGQHNYLCAGRNDCIVDKIRRKNCPACRLRKCCQAGMVLGGRKFKKFNKVRVVRALDAVALPQPVGVPNESQALSQRFTFSPGQDIQLIPPLINLLMSIEPDVIYAGHDNTKPDTSSSLLTSLNQLGERQLLSVVKWSKSLPGFRNLHIDDQITLIQYSWMSLMVFGLGWRSYKHVSGQMLYFAPDLILNEQRMKESSFYSLCLTMWQIPQEFVKLQVSQEEFLCMKVLLLLNTIPLEGLRSQTQFEEMRSSYIRELIKAIGLRQKGVVSSSQRFYQLTKLLDNLHDLVKQLHLYCLNTFIQSRALSVEFPEMMSEVIAAQLPKILAGMVKPLLFHKK

Data set [1] concerns the molecule itself. Put plainly: SEC. (Size exclusion chromatography separates by hydrodynamic size, large species first.)
The target in data set [2] is B3. Put plainly: HDX-MS.
The target of data set [3] is B1. Kind of data set: HDX-MS.
The target of data set [4] is T1, truncated PR-B (233-933) (human, UniProt P06401 233-933).
T1 sequence (looked up): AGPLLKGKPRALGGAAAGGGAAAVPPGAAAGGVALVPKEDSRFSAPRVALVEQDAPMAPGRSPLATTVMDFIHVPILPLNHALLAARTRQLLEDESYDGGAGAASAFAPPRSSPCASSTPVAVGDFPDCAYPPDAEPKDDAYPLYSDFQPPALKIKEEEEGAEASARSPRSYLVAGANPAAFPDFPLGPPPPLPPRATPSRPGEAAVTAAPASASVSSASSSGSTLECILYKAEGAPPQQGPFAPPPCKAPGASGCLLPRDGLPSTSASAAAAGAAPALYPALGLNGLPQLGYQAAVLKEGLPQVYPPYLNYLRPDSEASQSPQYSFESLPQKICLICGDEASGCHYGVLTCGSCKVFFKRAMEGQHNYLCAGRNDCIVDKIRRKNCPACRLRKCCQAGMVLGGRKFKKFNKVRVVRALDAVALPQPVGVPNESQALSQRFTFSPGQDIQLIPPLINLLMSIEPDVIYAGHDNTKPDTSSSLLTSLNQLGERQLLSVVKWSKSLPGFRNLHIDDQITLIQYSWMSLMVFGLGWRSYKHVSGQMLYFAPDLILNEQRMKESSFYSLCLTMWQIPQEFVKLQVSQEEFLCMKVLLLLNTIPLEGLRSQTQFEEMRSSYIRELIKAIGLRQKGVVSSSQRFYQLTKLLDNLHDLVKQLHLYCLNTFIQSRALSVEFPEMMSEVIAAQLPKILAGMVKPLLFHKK
Kind of data set: HDX-MS.

What is called stoichiometry N is the number of molecules, sites or subunits per partner or assembly.

Turning to B1, the “stoichiometry N” value in data set [1] was found to be 2.

Regarding B2, the binding result in data set [2], in data set [3] and in data set [4] was “binds” each time. Regarding B3, the “stoichiometry N” value in data set [1] is 2.
